T1: synthetic peptide substrate containing the Swedish KM→NL mutation (SEVNLDAEFR)
T1 chain: SEVNLDAEFR

T2: synthetic peptide substrate containing the wild-type APP β-secretase site (SEVKMDAEFR)
T2 chain: SEVKMDAEFR

B1: Recombinant human Asp2(a) prepared in CHO cells (protein)
chain: ETDEEPEEPGRRGSFVEMVDNLRGKSGQGYYVEMTVGSPPQTLNILVDTGSSNFAVGAAPHPFLHRYYQRQLSSTYRDLRKGVYVPYTQGKWEGELGTDLVSIPHGPNVTVRANIAAITESDKFFINGSNWEGILGLAYAEIARPDDSLEPFFDSLVKQTHVPNLFSLHLCGAGFPLNQSEVLASVGGSMIIGGIDHSLYTGSLWYTPIRREWYYEVIIVRVEINGQDLKMDCKEYNYDKSIVDSGTTNLRLPKKVFEAAVKSIKAASSTEKFPDGFWLGEQLVCWQAGTTPWNIFPVISLYLMGEVTNQSFRITILPQQYLRPVEDVATSQDDCYKFAISQSSTGTVMGAVIMEGFYVVFDRARKRIGFAVSACHVHDEFRTAAVEGPFVTLDMEDCGYNIPQTDESTLMTIAYVMAAICALFMLPLCLMVCQWRCLRCLRQQHDDFADDISLLK
B2: Hu-Asp2(b) expressed in CHO cells (protein)
chain: TQHGIRLPLRSGLGGAPLGLRLPRETDEEPEEPGRRGSFVEMVDNLRGKSGQGYYVEMTVGSPPQTLNILVDTGSSNFAVGAAPHPFLHRYYQRQLSSTYRDLRKGVYVPYTQGKWEGELGTDLVSIPHGPNVTVRANIAAITESDKFFINGSNWEGILGLAYAEIARLCGAGFPLNQSEVLASVGGSMIIGGIDHSLYTGSLWYTPIRREWYYEVIIVRVEINGQDLKMDCKEYNYDKSIVDSGTTNLRLPKKVFEAAVKSIKAASSTEKFPDGFWLGEQLVCWQAGTTPWNIFPVISLYLMGEVTNQSFRITILPQQYLRPVEDVATSQDDCYKFAISQSSTGTVMGAVIMEGFYVVFDRARKRIGFAVSACHVHDEFRTAAVEGPFVTLDMEDCGYNIPQTDESTLMTIAYVMAAICALFMLPLCLMVCQWRCLRCLRQQHDDFADDISLLK

How the values were obtained:
[1] = target: T1, synthetic peptide substrate containing …
[2] = target: T2, synthetic peptide substrate containing …

Protein | proteolysis of peptide substrate (percent hydrolysis by RP-HPLC), Swedish peptide against wild type after 6 hours [1] | proteolysis of peptide substrate (percent hydrolysis by RP-HPLC) [2] | proteolysis of peptide substrate (RP-HPLC) [1]
B1 | about 10-fold higher than wild type APP | Maximal proteolysis was seen with the Swedigh β-secretase peptide, which, after 6 hours, was about 10-fold higher than wild type APP | 
B2 |  |  | also cleaves the Swedish β-secretase peptide in proteolysis assays using identical assay conditions

Reference: US20030077226
